In patent US20250223354A1 (BIOTHEUS, published 2025):

T1: human TIGIT-his protein (human, UniProt Q495A1 22-141)
T1 construct: not shown: his tag
T1 sequence: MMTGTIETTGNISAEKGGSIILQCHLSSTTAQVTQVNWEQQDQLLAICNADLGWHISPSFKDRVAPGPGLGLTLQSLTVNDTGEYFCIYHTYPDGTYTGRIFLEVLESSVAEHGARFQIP

T2: mouse TIGIT-his protein (mouse, UniProt P86176 29-148)
T2 construct: not shown: his tag
T2 sequence: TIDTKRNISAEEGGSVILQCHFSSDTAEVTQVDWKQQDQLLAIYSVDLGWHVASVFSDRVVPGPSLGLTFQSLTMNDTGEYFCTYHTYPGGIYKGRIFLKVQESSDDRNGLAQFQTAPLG

T3: human TIGIT expressed on cells (human, UniProt Q495A1 22-244)
T3 construct: whole, on cells; cDNA encoding human TIGIT in pCHO1.0 for CHO cells; also called CHO-huTIGIT cells
T3 sequence (looked up): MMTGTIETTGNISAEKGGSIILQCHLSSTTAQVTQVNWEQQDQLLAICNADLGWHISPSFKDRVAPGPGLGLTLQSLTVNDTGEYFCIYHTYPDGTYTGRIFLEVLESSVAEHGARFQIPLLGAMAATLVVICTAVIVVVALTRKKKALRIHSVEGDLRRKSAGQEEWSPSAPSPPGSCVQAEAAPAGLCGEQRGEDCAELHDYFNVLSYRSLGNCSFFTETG

T4: mouse TIGIT overexpressed on CHO cells (mouse, UniProt P86176 29-249)
T4 construct: whole, on cells; also called CHO-muTIGIT cells
T4 sequence (looked up): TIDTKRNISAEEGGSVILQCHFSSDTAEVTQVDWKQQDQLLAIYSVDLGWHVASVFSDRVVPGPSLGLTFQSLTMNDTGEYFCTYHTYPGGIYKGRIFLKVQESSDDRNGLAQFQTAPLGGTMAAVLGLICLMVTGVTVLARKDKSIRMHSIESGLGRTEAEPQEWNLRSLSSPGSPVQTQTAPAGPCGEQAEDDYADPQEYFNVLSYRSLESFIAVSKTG

B1: anti-TIGIT monoclonal antibody 55796-G1 (antibody, V domains shown)
VH: QLQLQESGPGLVKPAETLSLTCTVSGGSISSYDHYWTWIRQPPGKGLEWIGTVYYSGSTFHNPSLKSRVTIPVDTSKNQFSLKLSSVTAADTAVYYCARVGPDVSHPPFDYWGQGTLVTVSS
VL: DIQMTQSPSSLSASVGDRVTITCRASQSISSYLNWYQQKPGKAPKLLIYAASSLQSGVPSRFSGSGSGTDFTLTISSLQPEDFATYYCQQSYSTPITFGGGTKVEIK
notes: Wild-type human IgG1 heavy chain constant region, human kappa light chain constant region
B2: anti-TIGIT monoclonal antibody 55796-G1LALA (antibody, V domains shown)
VH: B1 VH
VL: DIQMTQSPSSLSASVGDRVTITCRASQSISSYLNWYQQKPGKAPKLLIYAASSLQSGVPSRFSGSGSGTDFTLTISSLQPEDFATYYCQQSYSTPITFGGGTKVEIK
notes: Human IgG1 heavy chain constant region modified by L234A, L235A; human kappa light chain constant region; HEK293

How the values were obtained:
[1] = target: T5, cynomolgus TIGIT overexpressed on CHO cells (cynomolgus, UniProt A0A7N9I9V4 89-312); assay: flow cytometry, CHO-cynoTIGIT cells
T5 construct: whole, on cells; also called CHO-cynoTIGIT cells
From the text: (§1) Specifically, CHO cells overexpressing human TIGIT (CHO-huTIGIT cells), CHO cells overexpressing cynomolgus TIGIT (CHO-cynoTIGIT cells) and CHO cells overexpressing mouse TIGIT (CHO-muTIGIT cells) were generated by transfection of the pCHO1.0 vector (purchased from Invitrogen) with cDNA encoding human TIGIT, cynomolgus TIGIT and mouse TIGIT cloned into the multiple cloning site (MCS), respectively, followed by pressure screening. The overexpressing cells were expanded and adjusted to an appropriate cell density, and added to a 96-well flow cytometry plate. After centrifugation, the cells were added with a gradiently diluted sample to be tested, and incubated at 4° C. for 30 minutes. The cells were washed twice with PBS, and added with a fluorescent secondary antibody correspondingly diluted to an appropriate concentration, then incubated at 4° C. for 30 minutes, and washed twice with PBS. Cells were resuspended with PBS, and detected on a CytoFlex flow cytometer, and the corresponding MFI was calculated. Graphpad software was used for graphical analysis to obtain EC₅₀ values.

[2] = target: T1, human TIGIT-his protein; assay: BLI (ForteBio), IgG on AHQ sensor, 100 nM TIGIT-his, monovalent, 1:1 model
Description: (§2) Biofilm layer optical interference technology (ForteBio) was used to determine the binding and dissociation […] values of the anti-TIGIT monoclonal antibodies obtained in Example 1 to human, cynomolgus monkey and mouse TIGIT. Fortebio affinity measurements were performed according to existing methods (Este, P et al., High throughput solution-based measurement of antibody-antigen affinity and epitope binning. Mabs, 2013.5(2): p 270-8).
(§3) The antibody-loaded sensor was incubated in 100 nM TIGIT-his antigen to the plateau phase, and then the sensor was transferred to an analysis buffer and incubated for at least 2 minutes for measuring dissociation rate. The kinetic analysis was performed using a 1:1 binding model.

[3] = target: T2, mouse TIGIT-his protein; assay: as above
Description: as §2, §3

[4] = target: T6, cynomolgus monkey TIGIT-his protein (cynomolgus monkey); assay: as above
T6 construct: also called Cynomolgus TIGIT-his; not shown: his tag
Description: as §2, §3

[5] = target: T3, human TIGIT expressed on cells; assay: flow cytometry, competition with human CD155-mouse IgG2a Fc (2 ug/mL) on CHO-huTIGIT cells
Description: (§4) Specifically, the CHO-huTIGIT cells were expanded and adjusted to a cell density of 2×10⁶ cells/mL, added to a 96-well flow plate at 100 μL/well, and centrifuged for later use. The purified monoclonal antibodies were diluted 3-fold with PBS starting at 400 nM for a total of 12 concentration gradients. The diluted sample was added at 60 μL/well to the cells-carrying 96-well flow plate, and incubated at 4° C. for 30 minutes. […] APC-conjugated goat anti-mouse IgG antibody diluted 100-fold with PBS was added at 100 μL/well, incubated at 4° C. for 30 minutes, and washed twice with PBS. Cells were resuspended with PBS at 100 μL/well, and detected on a CytoFlex flow cytometer, and the corresponding MFI was calculated.

[6] = target: T4, mouse TIGIT overexpressed on CHO cells; assay: flow cytometry blocking assay: binding of mouse CD155 protein with mouse IgG2a Fc tag to CHO cells overexpressing mouse TIGIT, median fluorescence intensity APC-A; unit from the concentration axis
Description: as §4, with “The CHO-muTIGIT” for “Specifically, the CHO-huTIGIT”, “purified” for “purified monoclonal”, “gradients.” for “gradients. The diluted sample was added at 60 μL/well to the cells-carrying 96-well flow plate, and incubated at 4° C. for 30 minutes.”, “calculated. Graphpad software was used for graphing analysis to obtain IC₅₀ values.” for “calculated.”

[7] = target: T4, mouse TIGIT overexpressed on CHO cells; assay: flow cytometry on CHO cells overexpressing mouse TIGIT, median fluorescence intensity PE-A; unit from the concentration axis
From the text: as §1

[8] = target: T3, human TIGIT expressed on cells; assay: flow cytometry on CHO cells overexpressing human TIGIT, median fluorescence intensity PE-A; unit from the concentration axis
From the text: as §1

[9] = target: T3, human TIGIT expressed on cells; assay: flow cytometry blocking assay: binding of human CD155 protein with mouse IgG2a Fc tag to CHO cells overexpressing human TIGIT, median fluorescence intensity APC-A; unit from the concentration axis
Description: as §4

T6 sequence (chain, as listed by the source): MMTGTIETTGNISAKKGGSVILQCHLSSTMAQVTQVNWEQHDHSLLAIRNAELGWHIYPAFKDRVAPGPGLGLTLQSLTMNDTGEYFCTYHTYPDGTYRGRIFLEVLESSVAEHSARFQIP
T5 sequence (A0A7N9I9V4 entry or part of it): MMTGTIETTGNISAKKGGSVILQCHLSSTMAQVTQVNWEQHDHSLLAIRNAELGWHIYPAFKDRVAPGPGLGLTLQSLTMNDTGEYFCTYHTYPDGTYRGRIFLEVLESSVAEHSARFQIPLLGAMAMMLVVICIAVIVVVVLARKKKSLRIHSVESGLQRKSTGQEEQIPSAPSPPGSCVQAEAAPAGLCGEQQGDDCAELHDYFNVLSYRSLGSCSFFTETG

Binder | EC50 [1] | Kd [2] | Kd [3] | Kd [4] | IC50 [5] | IC50 [6] | EC50 [7] | EC50 [8] | IC50 [9]
B1 | 1.32 nM | 0.199 nM | 96 nM | 4.72 nM | 0.24 nM | 1.5 nM | 2.96 nM | 0.962 nM | 0.236 nM
B2 | 1.34 nM | 0.21 nM | 61 nM | 4.9 nM | 0.37 nM | 1.56 nM | 3.36 nM | 0.845 nM | 0.373 nM
